Experimental findings from patent US20250257142A1 (INVETX, published 2025) are described below.

Where a chain is given by its changes, count along the chain named. Names and notes keep the numbering of the source.

The chains are these.
T1: extracellular domain of canine IL-31RA fused to murine IgG2A Fc (canine)
T1 construct: also called Canine IL-31RA-murine IgG2A Fc; Canine IL-31RA-mFc
T1 chain: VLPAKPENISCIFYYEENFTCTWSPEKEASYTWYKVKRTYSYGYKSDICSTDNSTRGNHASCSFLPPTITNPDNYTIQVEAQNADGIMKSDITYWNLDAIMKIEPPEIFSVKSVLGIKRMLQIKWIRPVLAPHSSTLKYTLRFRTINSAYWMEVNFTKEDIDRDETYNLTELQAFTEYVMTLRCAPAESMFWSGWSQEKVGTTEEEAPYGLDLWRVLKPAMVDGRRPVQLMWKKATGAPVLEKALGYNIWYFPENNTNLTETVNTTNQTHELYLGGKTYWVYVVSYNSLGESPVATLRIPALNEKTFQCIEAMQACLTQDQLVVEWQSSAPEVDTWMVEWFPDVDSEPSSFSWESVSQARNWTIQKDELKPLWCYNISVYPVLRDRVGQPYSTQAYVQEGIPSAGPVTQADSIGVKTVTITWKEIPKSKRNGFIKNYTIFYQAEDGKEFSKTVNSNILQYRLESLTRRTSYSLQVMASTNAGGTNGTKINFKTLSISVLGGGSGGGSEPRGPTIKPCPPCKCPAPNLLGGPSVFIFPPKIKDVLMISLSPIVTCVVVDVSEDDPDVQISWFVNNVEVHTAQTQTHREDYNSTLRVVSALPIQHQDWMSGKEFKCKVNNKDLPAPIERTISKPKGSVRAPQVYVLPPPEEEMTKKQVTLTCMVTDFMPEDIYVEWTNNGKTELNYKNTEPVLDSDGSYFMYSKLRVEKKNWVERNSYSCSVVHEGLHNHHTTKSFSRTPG

B1: 109-49 heavy chain M118I variant with wild-type light chain (antibody, V domains shown)
VH: EVQLVESGGDLVKPGGSLRLSCVASGFTFDDYGMSWVRQAPGKGLQWVSGINWAGGTIGYADAVKGRFTISRDNARNTVYLQMNSLRAEDTAVYYCARESPLRLGDLGGDYFYYYYYIDVWGQGTLVTVSS
VL: EVVMIQTPLSLSVSPGEPASISCRASQSVSSRYLVWYLQKPGQSPQLLIYGTSSRATGVSDRFSGSGSGTDFTLRISRVEAEDVGVYYCQQYDNSPRTFGQGTKVEIKR
notes: Canine IgGB/kappa; signal peptides left out; also called M118I / Wild-type
B2: 109-49 heavy chain M118L variant with wild-type light chain (antibody, V domains shown)
VH: B1 VH with I118L
VL: B1 VL
notes: Canine IgGB/kappa; signal peptides left out; also called M118L / Wild-type
B3: 109-49 wild-type heavy chain with light chain N94Q variant (antibody, V domains shown)
VH: B1 VH with I118M
VL: B1 VL with N94Q
notes: Canine IgGB/kappa; signal peptides left out; also called Wild-type / N94Q
B4: 109-49 heavy chain W53Y variant with wild-type light chain (antibody, V domains shown)
VH: B1 VH with W53Y, I118M
VL: B1 VL
notes: Canine IgGB/kappa; signal peptides left out; also called W53Y / Wild-type
B5: 109-49 wild-type heavy chain with light chain S95A variant (antibody, V domains shown)
VH: B1 VH with I118M
VL: B1 VL with S95A
notes: Canine IgGB/kappa; signal peptides left out; also called Wild-type / S95A
B6: caninized antibody clone 109-49 (antibody, V domains shown)
VH: B1 VH with I118M
VL: B1 VL
notes: Canine IgGB and canine kappa constant domains
B7: 109-49 heavy chain M118I variant with light chain N94Q variant (antibody, V domains shown)
VH: B1 VH
VL: B1 VL with N94Q
notes: Canine IgGB/kappa; signal peptides left out; also called M118I / N94Q
B8: 109-49 heavy chain W53F variant with wild-type light chain (antibody, V domains shown)
VH: B1 VH with W53F, I118M
VL: B1 VL
notes: Canine IgGB/kappa; signal peptides left out; also called W53F / Wild-type
B9: 109-49 heavy chain W53F + M118I variant with light chain N94Q variant (antibody, V domains shown)
VH: B1 VH with W53F
VL: B1 VL with N94Q
notes: Canine IgGB/kappa; signal peptides left out; also called W53F-M118I / N94Q
B10: 109-49 heavy chain W53F + M118I variant with light chain S95A variant (antibody, V domains shown)
VH: B1 VH with W53F
VL: B1 VL with S95A
notes: Canine IgGB/kappa; signal peptides left out; also called W53F-M118I / S95A
B11: 186-95 heavy chain M106L variant with wild-type light chain (antibody, V domains shown)
VH: EVQLVESGGDLVKPGGSLRLSCVASGFTFSSYAMSWVRQAPGKGLQWVSAISGSGNSTYYADAVKGRFTISRDNAKNTLYLQMNSLRAEDTAVYYCATQVVYYFKLDVWGQGTLVTVSS
VL: EIVMTQSPGSLAGSAGESVSINCKSSQSVSSNLAWYQQKPGERPKLLIYGASTRASGVPARFSSSGSGTDFTLTINNLQAEDVGDYYCQQYYNWPPFTFGQGTKLEIKR
notes: Canine IgGB/kappa; signal peptides left out; also called M106L / Wild-type
B12: 186-95 heavy chain M106I variant with wild-type light chain (antibody, V domains shown)
VH: B11 VH with L106I
VL: B11 VL
notes: Canine IgGB/kappa; signal peptides left out; also called M106I / Wild-type
B13: 186-95 wild-type heavy chain with light chain W94Y variant (antibody, V domains shown)
VH: B11 VH with L106M
VL: B11 VL with W94Y
notes: Canine IgGB/kappa; signal peptides left out; also called Wild-type / W94Y
B14: 186-95 wild-type heavy chain with light chain W94F variant (antibody, V domains shown)
VH: B11 VH with L106M
VL: B11 VL with W94F
notes: Canine IgGB/kappa; signal peptides left out; also called Wild-type / W94F
B15: caninized antibody clone 186-95 (antibody, V domains shown)
VH: B11 VH with L106M
VL: B11 VL
notes: as for B6
B16: 186-95 heavy chain N56Q + M106L variant with light chain W94Y variant (antibody, V domains shown)
VH: B11 VH with N56Q
VL: B11 VL with W94Y
notes: Canine IgGB/kappa; signal peptides left out; also called N56Q-M106L / W94Y
B17: 186-95 heavy chain S57A variant with wild-type light chain (antibody, V domains shown)
VH: B11 VH with S57A, L106M
VL: B11 VL
notes: Canine IgGB/kappa; signal peptides left out; also called S57A / Wild-type
B18: 186-95 heavy chain N56Q variant with wild-type light chain (antibody, V domains shown)
VH: B11 VH with N56Q, L106M
VL: B11 VL
notes: Canine IgGB/kappa; signal peptides left out; also called N56Q / Wild-type

One assay deals with T1, extracellular domain of canine IL-31RA …. Nature of the assay: SPR Biacore T200, antibody captured on anti-dog H+L chip, canine IL-31RA-mFc as analyte; relative affinity scale: *** 3 pM-100 pM, ** 101 pM-1 nM, * 1.1 nM-20 nM (avidity). How it is done:
(§1) The different heavy and light chain combinations were co-transfected into ExpiCHO cells using the ExpiCHO transfection kit (ThermoFisher; Cat. #A29133). Seven days following the transient transfection, the IgG in the conditioned medium was purified using MabSelect SuRe chromatography. The antibodies were buffer-exchanged into PBS, pH 7.4. The relative affinity of the variants was determined by SPR on a Biacore T200. The antibody was captured using a CM5 Series S chip amine coupled with an anti-dog H+L antibody (Jackson Immunoresearch). Canine IL-31RA-mFc (100 nM, 50 nM, 25 nM, 12.5 nM, 6.25 nM, 3.625 nM) solutions in 1×HBS-EP+ was flown over the sensor chip for a contact time of 120 s and a dissociation time of 600 s at a flow rate of […]. Double reference-subtracted sensorgrams were fitted to a 1:1 binding model using Biacore T200 Evaluation software. The canine IL-31RA antigen was both a dimer and aggregated so there were avidity effects with the measured affinities. […] Following the initial results with the single variants, a heavy chain containing the W53F variant and the M118I variant was synthesized and subcloned into pcDNA 3.4 (SEQ ID NO:18). The same methods as described above for expression and purification of the variant along with measuring the relative affinity were used to determine the relative affinity of the W53F/M118I heavy chain variant combined with the S95A light chain and the N94Q light chain variants.
For orientation: Surface plasmon resonance follows binding to a sensor surface in real time, without labels.
In the case of B1, the “relative affinity (apparent KD by SPR)” value lay within 0.003 to 0.1 nM.
Same read-out and setting: for B2 the value was 1.1 to 20 nM.
On the same count and under the same terms, the value for B3 was 0.101 to 1 nM.
Take B4: the “relative affinity (apparent KD by SPR)” value was 1.1 to 20 nM.
For the molecule B5, the “relative affinity (apparent KD by SPR)” value lay in the range of 0.003 to 0.1 nM.
Still for that read-out and setting: for B6 the value was 0.003 to 0.1 nM; for B7, 0.003 to 0.1 nM; for B8, 1.1 to 20 nM.
For B9, the “relative affinity (apparent KD by SPR)” value fell in the range of 1.1 to 20 nM.
The same measure, in the same setting: for B10 the value was 1.1 to 20 nM.

The target is the same in a further assay. The assay is described as above. The source holds these as a separate data set. How it is done: as §1, with “Seven” for “The different heavy and light chain combinations were co-transfected into ExpiCHO cells using the ExpiCHO transfection kit (ThermoFisher; Cat. #A29133). Seven”
Take B11: the binding result is on record as “binds”.
For the molecule B12, the binding result is listed as “binds”.
Still for that read-out and setting: for B13 the value was “binds”; for B14, “binds”.
The same measure, in the same setting: the value for B15 was “binds”; that for B16 was “binds”; that for B17 was “binds”.
As for B18, the binding result is listed as “binds”.
